Non-standard residues stand in square brackets, D forms with d. 2Nal = N[C@@H](Cc1ccc2ccccc2c1)C(=O)O
molecular target: Sushi domains (SD1/2) protein of the GABAB1a (GB1a) subunit, recombinant; experiment: FP competition
Sequence (Q9Z0U4 29-158): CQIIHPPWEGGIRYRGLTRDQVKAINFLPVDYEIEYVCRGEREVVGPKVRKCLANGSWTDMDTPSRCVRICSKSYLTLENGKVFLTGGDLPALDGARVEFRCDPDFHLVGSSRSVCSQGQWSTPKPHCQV

Binder | Ki
Ac-EDDDWIDWGPTSDDDEAAAKRRRRRRRR-NH2 [17-RL-R8 (…)] | 139 nM
Ac-EDDDWIDWGPTSDDDRRRRRRRR-NH2 [17-R8 (…)] | 123 nM
Ac-RRRRRRRRGGGGSEDDDWIDWYDSDDD-NH2 [R8-FL-16 (…)] | 280 nM
Ac-EDDDWIDWGPTSDDDGGGGSRRRRRRRR-NH2 [17-FL-R8 (…)] | 147 nM
Ac-RRRRRRRREAAAKEDDDWIDWGPTSDDD-NH2 [R8-RL-17 (…)] | 105 nM
Ac-RRRRRRRRGGGGSEDDDWIDWGPTSDDD-NH2 [R8-FL-17 (…)] | 140 nM
Ac-EDDSDVWWGGADWD-NH2 | 459 nM
Ac-EDDDWIDWYDSDDDEAAAKRRRRRRRR-NH2 [16-RL-R8 (…)] | 100 nM
Ac-EDDSDVWWGGYDTD-NH2 | 255 nM
Ac-EDDSDVWWGGADHD-NH2 | 739 nM
Ac-RRRRRRRREDDDWIDWGPTSDDD-NH2 [R8-17 (Ac-…-NH2)] | 58 nM
Ac-EDDDWIDWYDSDDDRRRRRRRR-NH2 [16-R8 (…)] | 65 nM
Ac-RRRRRRRREAAAKEDDDWIDWYDSDDD-NH2 [R8-RL-16 (…)] | 314 nM
Ac-EDDSDVWWGGADED-NH2 | 337 nM
Ac-EDDSDVWWGPADTD-NH2 | 332 nM
Ac-EDDSDVWWGGSDTD-NH2 | 204 nM
Ac-EDDDWIDWYDSDDDGGGGSRRRRRRRR-NH2 [16-FL-R8 (…)] | 118 nM
Ac-RRRREDDD[2Nal]IDWGPTSDDD-NH2 (SMILES CC[C@H](C)[C@H](NC(=O)[C@H](Cc1ccc2ccccc2c1)NC(=O)[C@H](CC(=O)O)NC(=O)[C@H](CC(=O)O)NC(=O)[C@H](CC(=O)O)NC(=O)[C@H](CCC(=O)O)NC(=O)[C@H](CCCNC(=N)N)NC(=O)[C@H](CCCNC(=N)N)NC(=O)[C@H](CCCNC(=N)N)NC(=O)[C@H](CCCNC(=N)N)NC(C)=O)C(=O)N[C@@H](CC(=O)O)C(=O)N[C@@H](Cc1c[nH]c2ccccc12)C(=O)NCC(=O)N1CCC[C@H]1C(=O)N[C@H](C(=O)N[C@@H](CO)C(=O)N[C@@H](CC(=O)O)C(=O)N[C@@H](CC(=O)O)C(=O)N[C@@H](CC(=O)O)C(N)=O)[C@@H](C)O) [R4-21 (Ac-RRRREDDD(2Nala)…-NH2)] | 13 nM
Ac-EDDSDVWWGGHDTD-NH2 | 346 nM

molecular target: Sushi domains (SD1/2) protein of GABAB1a (GB1a); experiment: FP competition vs TAMRA AJAP-1probe
Sequence (Q9Z0U4 29-158): as the sequence (Q9Z0U4 29-158) above

Binder | Ki
Ac-EVEFIAWGPTGDED-NH2 | 28 nM
Ac-ETEFIAWGPTGDEQ-NH2 | 37 nM
Ac-ETEFIAWGPTGDPD-NH2 | 34 nM
Ac-ETEFIAWGPSGDED-NH2 | 32 nM
Ac-PWFIVWGPTVSDED-NH2 | 192 nM
Ac-ETEFIAWGPTGDWD-NH2 | 54 nM
Ac-PWVIVWGPTVSRED-NH2 | 302 nM
Ac-ETEFIAWGPTGYED-NH2 | 41 nM
Ac-ETEWIAWGPTGDED-NH2 | 35 nM
Ac-PSAIVWGPTVSRED-NH2 | 906 nM
Ac-ETEFIAWGPFGDED-NH2 | 40 nM
Ac-RTEFIAWGPTGDED-NH2 | 87 nM
Ac-ETDFIAWGPTGDED-NH2 | 26 nM
Ac-ETEFIAWGPTGDEV-NH2 | 40 nM
Ac-ETEFIDWGPTGDED-NH2 [peptide 26] | 9 nM

Next, values leading:

Ki | Binder
715 nM | Ac-DAIVWGPTVSRED-NH2 [… (SEQ ID NO: 341)]
208 nM | Ac-DAIVWGPTVSRED-NH2 [… (SEQ ID NO: 342)]
41 nM | Ac-ETEFIAWGPTGDEP-NH2
461 nM | Ac-PWFIVWGPTVSRED-NH2
199 nM | Ac-ETEFIAWYPTGDED-NH2
41 nM | Ac-ETEFIAWGPTGDFD-NH2
32 nM | Ac-ETEFIAWGPTRDED-NH2
30 nM | Ac-ETEFIAWGPTHDED-NH2
48 nM | Ac-ETEFIAWGPTGDEF-NH2
1500 nM | Ac-PHAIVWGPTVSRED-NH2
54 nM | Ac-ETEFIAWGPTGDRD-NH2
1300 nM | Ac-PWAIDWGPTVSRED-NH2
673 nM | Ac-PDAIVWGPTVSRED-NH2
54 nM | Ac-ETEFIAWGPTGDEW-NH2
30 nM | Ac-ETEFIVWGPTGDED-NH2
27 nM | Ac-ETEFIAWGPTGDDD-NH2
34 nM | Ac-ETSFIAWGPTGDED-NH2
60 nM | Ac-ETEFIAWGPTGHED-NH2
38 nM | Ac-ETEFIAWGPHGDED-NH2
18 nM | Ac-ETEYIAWGPTGDED-NH2
338 nM | Ac-DWAIVWGPTVSRED-NH2
336 nM | Ac-PWYIVWGPTVSRED-NH2
383 nM | Ac-PWAIVWGPTSSRED-NH2
24 nM | Ac-ETEFIHWGPTGDED-NH2
240 nM | Ac-ETEFIAWHPTGDED-NH2
43 nM | Ac-ETEFIAWGPTGDEN-NH2
792 nM | Ac-PFAIVWGPTVSRED-NH2
40 nM | Ac-ETEFIAWGPTGDYD-NH2
62 nM | Ac-NTEFIAWGPTGDED-NH2
412 nM | Ac-VWAIVWGPTVSRED-NH2
